According to publication PMC7461574:

Target: non-glycosylated wild-type PAI-1 (PAI-1-wt) (human) (UniProt P05121)
Chain of UniProt P05121 (P05121 24-402): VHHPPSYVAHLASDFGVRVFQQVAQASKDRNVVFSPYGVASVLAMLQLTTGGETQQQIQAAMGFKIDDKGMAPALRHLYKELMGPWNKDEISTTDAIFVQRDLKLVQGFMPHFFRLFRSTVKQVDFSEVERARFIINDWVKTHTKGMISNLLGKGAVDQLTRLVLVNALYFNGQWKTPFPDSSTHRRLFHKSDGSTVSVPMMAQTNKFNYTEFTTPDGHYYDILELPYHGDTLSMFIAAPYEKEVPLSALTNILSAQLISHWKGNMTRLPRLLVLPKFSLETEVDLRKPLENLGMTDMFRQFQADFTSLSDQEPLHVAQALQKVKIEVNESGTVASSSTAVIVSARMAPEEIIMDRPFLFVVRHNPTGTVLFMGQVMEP

B1: VHH-s-a93 (Nb93) (VHH)
VHH: QVQLVESGGGLVQPGGSLRLSCAASGFSLDNYAIGWFRQAPGKEREGVSCISSSDGSTYYTDSVEGRFTISRDNAKNTVYLQMNSLKPDDTAVYYCAADYGSSWCTFNGMDYWGQGTQVTVSS
Question: What does the source list for B1?
Answer: IC50 of inhibition of PAI-1-wt activity, chromogenic plasminogen-coupled assay with tPA (residual tPA activity; pair blocked: PAI-1/tPA), Nb93 1 to 512 nM: 202 nM; maximum inhibition of PAI-1-wt activity, chromogenic plasminogen-coupled assay with tPA (pair blocked: PAI-1/tPA), Nb93 1 to 512 nM: 55%
